Results on three molecules are retold here after doi:10.1101/2021.02.07.430161 (bioRxiv, 2021).

Data set [1] concerns the target T1, Poly(A) binding protein cytoplasmic 1 (PABPC1), full-length recombinant, His-tagged (UniProt P11940-1 1-636). In words: SEC-MALS.
The target in data set [2] is T1, Poly(A) binding protein cytoplasmic 1 …. Nature of the data set: SEC-MALS. The source holds these as a separate data set. For orientation: SEC sorts molecules by how far they enter the pores of the column.
The target in data set [3] is PABPC1 (1-372) (UniProt P11940-1 1-372). Nature of the data set: native gel or EMSA. (In general: A gel shift assay detects complexes by their altered migration in electrophoresis.)
Chain of PABPC1 (1-372) (P11940 1-372): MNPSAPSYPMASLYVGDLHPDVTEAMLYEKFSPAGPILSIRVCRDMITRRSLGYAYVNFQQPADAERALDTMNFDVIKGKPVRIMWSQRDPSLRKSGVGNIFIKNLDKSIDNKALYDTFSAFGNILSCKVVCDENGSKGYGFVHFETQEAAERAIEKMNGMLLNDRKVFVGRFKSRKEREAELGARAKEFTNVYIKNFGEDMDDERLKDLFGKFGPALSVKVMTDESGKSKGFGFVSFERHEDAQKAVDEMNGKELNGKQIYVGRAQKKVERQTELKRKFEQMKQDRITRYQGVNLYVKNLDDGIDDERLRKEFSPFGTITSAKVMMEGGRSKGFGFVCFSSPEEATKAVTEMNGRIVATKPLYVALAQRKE
The target in data set [4] is PABPC1 RRM23 (98-293) (UniProt P11940-1 98-293). In words: native gel or EMSA.
Chain of PABPC1 RRM23 (98-293) (P11940 98-293): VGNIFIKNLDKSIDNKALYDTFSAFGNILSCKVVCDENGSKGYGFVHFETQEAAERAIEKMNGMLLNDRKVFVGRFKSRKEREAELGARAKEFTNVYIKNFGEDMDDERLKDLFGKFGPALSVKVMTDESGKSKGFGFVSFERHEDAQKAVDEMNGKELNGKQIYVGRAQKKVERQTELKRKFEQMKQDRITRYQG
The target in data set [5] is PABPC1 full-length (His);Paip2 (Paip2a) full-length (human?;human?, UniProt P11940;Q9BPZ3 1-636;1-127, |). In words: EMSA.
Chain of PABPC1 full-length (His);Paip2 (Paip2a) full-length (P11940 whole entry, one chain of several): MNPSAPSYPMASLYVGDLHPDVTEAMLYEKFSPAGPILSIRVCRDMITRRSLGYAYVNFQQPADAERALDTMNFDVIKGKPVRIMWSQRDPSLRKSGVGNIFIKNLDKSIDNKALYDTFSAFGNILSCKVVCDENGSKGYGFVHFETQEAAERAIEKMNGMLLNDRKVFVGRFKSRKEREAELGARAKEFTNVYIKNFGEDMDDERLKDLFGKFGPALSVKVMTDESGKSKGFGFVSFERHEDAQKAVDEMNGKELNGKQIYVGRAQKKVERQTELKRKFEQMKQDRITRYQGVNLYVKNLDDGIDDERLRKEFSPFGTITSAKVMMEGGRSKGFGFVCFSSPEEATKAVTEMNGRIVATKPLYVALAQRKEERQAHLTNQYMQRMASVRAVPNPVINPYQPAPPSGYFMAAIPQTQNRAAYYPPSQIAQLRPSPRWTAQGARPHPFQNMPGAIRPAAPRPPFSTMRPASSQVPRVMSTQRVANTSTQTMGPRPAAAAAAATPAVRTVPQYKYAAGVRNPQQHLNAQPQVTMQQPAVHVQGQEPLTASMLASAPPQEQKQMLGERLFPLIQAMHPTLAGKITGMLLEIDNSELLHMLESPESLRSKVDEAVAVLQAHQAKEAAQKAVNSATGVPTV

In general, stoichiometry N refers to a count of units in the complex or per binding partner.

Read-outs that look alike come from different tables or passages of the source.

T1 sequence (P11940 whole entry): as the sequence (P11940 whole entry, one chain of several) above

B1: PABPC1-interacting protein 2 (Paip2), full-length recombinant (natural protein, UniProt Q9BPZ3 1-127, looked up)
chain: MKDPSRSSTSPSIINEDVIINGHSHEDDNPFAEYMWMENEEEFNRQIEEELWEEEFIERCFQEMLEEEEEHEWFIPARDLPQTMDQIQDQFNDLVISDGSSLEDLVVKSNLNPNAKEFVPGVKYGNI
B1: the “stoichiometry N” value came out at 1 Paip2 per PABPC1 in data set [1] and 2 Paip2 per PABPC1 in data set [2].

B2: Paip2 (22-75) (domain or fragment, UniProt Q9BPZ3 22-75, looked up)
chain: GHSHEDDNPFAEYMWMENEEEFNRQIEEELWEEEFIERCFQEMLEEEEEHEWFI
Regarding B2, the binding result in data set [3] and in data set [4] was “binds” each time. For the molecule AAAAAAAAAAAAAAAAAAAAAAAAA (ssRNA) [r(A)25], the binding result in data set [5] is reported as “binds”.
